Experimental data: patent US20250002876

How the values were obtained:
Assay in all cases: cell_activity
[1] = test system: MLT K350A/D416A S8P,C13R,K350A,D416A (Myotis lucifugus); settings: HEK293; integration >=10% GFP
[2] = test system: MLT K350A S8P,C13R,K350A (Myotis lucifugus); settings: HEK293; integration >=10% GFP
[3] = test system: ZnF-MLT transposase fusion, covalent linker (Myotis lucifugus); settings: amplicon-seq
[4] = test system: ZnF-MLT transposase, non-covalent linker (Myotis lucifugus); settings: HEK293 landing pad, amplicon-seq

Substance	activity (% GFP excision) [1]	activity (% GFP excision) [2]	activity (% of reads on target) ([3]; HEK293 landing pad)	activity (% of reads on target) [4]	activity (% of reads on target) ([3]; HEK293 plasmid landing pad, TTAA 15 bp from site)
TTAACACTTGGATTGCGGGAAACGAGTTAAGTCGGCTCGCGTGAATTGCGCGTACTCCGCGGGAGCCGTCTTAACTCGGTTCATATAGATTTGCGGTGGAGTGCGGGAAACGTGTAAACTCGGGCCGATTGTAACTGCGTATTACCAAATATTTGTT / AATTATTTATGTACTGAATAGATAAAAAAATGTCTGTGATTGAATAAATTTTCATTTTTTACACAAGAAACCGAAAATTTCATTTCAATCGAACCCATACTTCAAAAGATATAGGCATTTTAAACTAACTCTGATTTTGCGCGGGAAACCTAAATAATTGCCCGCGCCATCTTATATTTTGGCGGGAAATTCACCCGACACCGTAGTGTTAA [MLT donor left and right ITRs]	> 20	> 20			
Landing pad, single ZnF site next to TTAA			24	12	
CTCCACTGTGGGGTGCCGCAGTGGAGATGACTTGTTTGTTAACGGCACTTTAACAG (double strand) [Landing pad, ZnF sites on both sides of TTAA]				29	42
